Laboratory results taken from paper PMC2894972, “Protein-Protein Interaction Antagonists as Novel Inhibitors of Non-Canonical Polyubiquitylation” (PLoS ONE, 2010).

Molecular target: T1, Ubc13 (human, UniProt P61088 1-152)
T1 construct: Ubc13, ubiquitin-conjugating enzyme (E2), human; also called purified Ubc13; source: recombinant, purified
T1 sequence (looked up): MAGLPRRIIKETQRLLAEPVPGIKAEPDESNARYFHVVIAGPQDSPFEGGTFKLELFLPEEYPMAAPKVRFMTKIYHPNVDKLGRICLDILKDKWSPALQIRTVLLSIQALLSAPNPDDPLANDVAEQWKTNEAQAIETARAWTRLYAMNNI
Test: SPR; Uev1 immobilised on a Biacore CM5 chip (1179,1 RU); Ubc13 in the mobile phase; 10 mM HEPES, 0.15 M NaCl, pH 7.4; Biacore T100
Conditions: both partners purified

Kd: 1 nM
B1: Uev1 (natural protein)
chain: not shown
notes: Uev1, ubiquitin-conjugating enzyme variant 1, human; also called recombinant Uev1; source: recombinant, purified
